# Laboratory results taken from PMC2603141 (Virology, 2008).
# B1: PIV 5 HN stalk region, HN(stalk) (domain or fragment)
# chain: SPSSGLGSITDLLNNILSVANQIIYNSAVALPLQLDTLESTLLTAIKSLQTSDKLEQNCSWSAAL
# modifications: also: inter-chain disulfide, covalent dimer
# Target: the molecule itself
# Test: reducing and non-reducing SDS-PAGE
protein,measurement,value
B1,stoichiometry N,2
